Values of other authors as cited in paper PMC10875074.

Biological target: CD155 (poliovirus receptor, Necl-5) (Homo sapiens) (UniProt P15151)

- Kd: 2 nM
Substance: TIGIT (from UniProt Q495A1)
